Consider two molecules from patent US12456543B2, “Enzymes” (UNIVERSITY COURT OF THE UNIVERSITY OF ST ANDREWS, priority 2018, dated 2025).

The conditions of test [1]: engineered to expand substrate scope; cited from earlier work.
Test [2] can be described thus: Halogenase activity of Dsg205 and Dsg701 against 600 member compound library, LC-MSMS assay. The format is biochemical. Particulars: 600 member compound library.
The nature of test [3]: Halogenation of the initial 300 compound library by purified halogenase, LCMS. The format is biochemical. To be noted: out of 300 compounds.

B1: PrnA: tryptophan 7-halogenase, first step in pyrrolnitrin biosynthesis (protein, UniProt P95480 1-538, looked up)
Tryptophan 7-halogenase PrnA: MNKPIKNIVIVGGGTAGWMAASYLVRALQQQANITLIESAAIPRIGVGEATIPSLQKVFFDFLGIPEREWMPQVNGAFKAAIKFVNWRKSPDPSRDDHFYHLFGNVPNCDGVPLTHYWLRKREQGFQQPMEYACYPQPGALDGKLAPCLSDGTRQMSHAWHFDAHLVADFLKRWAVERGVNRVVDEVVDVRLNNRGYISNLLTKEGRTLEADLFIDCSGMRGLLINQALKEPFIDMSDYLLCDSAVASAVPNDDARDGVEPYTSSIAMNSGWTWKIPMLGRFGSGYVFSSHFTSRDQATADFLKLWGLSDNQPLNQIKFRVGRNKRAWVNNCVSIGLSSCFLEPLESTGIYFIYAALYQLVKHFPDTSFDPRLSDAFNAEIVHMFDDCRDFVQAHYFTTSRDDTPFWLANRHDLRLSDAIKEKVQRYKAGLPLTTTSFDDSTYYETFDYEFKNFWLNGNYYCIFAGLGMLPDRSLPLLQHRPESIEKAEAMFASIRREAERLRTSLPTNYDYLRSLRDGDAGLSRGQRGPKLAAQESL
Regarding B1, the “yields after directed evolution and rational design” value in test [1] is 15-65%.

B2: Dsg205: halogenase from Trichoderma virens Gy29-8 GenBank: EHK23009.1 (protein)
chain: MAIPEKCTVLVVGGGPAGSYAAAALAREGIDTVILEADKFPRYHIGESMLASMRHFLRFIDVDSVFDSYGFTKKVGAAFKLNPKKREGYTDFLAAGGPENYAWNVVRSEADQLLFQHAAKSGAKAFDGVQVKSINFIDVPYKGPGQLPHDYPGRPVSATYVQKDDNTPREIKFDYIIDASGRVGILSTKHLKNRKYNQGLKNVATWGYWKGAGAYGKGTPRENSPFFEALQDESGWAWLIPLHNGTASVGIVMNQKMSVERKTQAGSPDSKTFYLDCLKELAPDLTKLMENGELITDIKSAADYSYSASGYAIPYARIAGDAGCFIDPYFSSGVHLAFVGGLSAAATIAAAIRGDCSEEAAADWHSKKIADAYIRFLLVVLSAYRQIRSQEEPVLSDINEDNFDRAFAFFRPVIQGIADVDTKLSQDELRKTLEFCSNAFEPVKPEDRTAMLEKLGKDPATAYQVDLSDQQRTVVDHIRARQMMRTEDTININSFGTDSINGFVPNLKRGELGLVPAKV
modifications: left off: small tags and cut ends
As for B2, in test [2], the “members of the library halogenated (substrates accepted)” value came out at 33. Moreover, the “compounds of the initial 300 compound library halogenated” value in test [3] is 3.
